The results in this text go back to article PMC6504953, “Cauliflower mosaic virus transactivator protein (TAV) can suppress nonsense-mediated decay by targeting VARICOSE, a scaffold protein of the decapping complex” (Scientific Reports, 2019).

In this experiment the target is T1, Cauliflower mosaic virus translation transactivator/viroplasmin (TAV), strain CM1841, fused to the Gal4 … (Cauliflower mosaic virus (strain CM1841), UniProt P03558 1-520).
T1 sequence: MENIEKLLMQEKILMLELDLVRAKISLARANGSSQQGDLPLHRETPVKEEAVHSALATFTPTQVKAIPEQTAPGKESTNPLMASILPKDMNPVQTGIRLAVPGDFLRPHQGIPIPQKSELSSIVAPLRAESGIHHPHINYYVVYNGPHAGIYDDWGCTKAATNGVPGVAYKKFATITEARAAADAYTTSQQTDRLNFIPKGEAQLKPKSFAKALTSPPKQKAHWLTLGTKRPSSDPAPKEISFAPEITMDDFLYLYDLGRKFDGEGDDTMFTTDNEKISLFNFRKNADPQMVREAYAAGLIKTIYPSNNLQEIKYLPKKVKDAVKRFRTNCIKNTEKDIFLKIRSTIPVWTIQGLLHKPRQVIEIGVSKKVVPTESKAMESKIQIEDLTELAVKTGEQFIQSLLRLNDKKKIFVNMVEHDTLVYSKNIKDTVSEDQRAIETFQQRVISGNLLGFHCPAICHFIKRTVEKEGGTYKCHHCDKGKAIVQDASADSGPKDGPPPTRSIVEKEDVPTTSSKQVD
The experiment is described as follows: cell-based or functional assay.

B1: VARICOSE (VCS), entire protein, fused to the Gal4 activation domain (natural protein, A. thaliana, UniProt Q9LTT8 1-1344, looked up)
chain: MASSPGNTNPHNTPPFDLGILFKPSSNPYPPPAASYPPPTGPFLHNQYDQQHYAPPGISAQPSPVTQQQQDVSSSSAATNLHPQRTLSYPTPPLNLQSPRSNHNPGTHILALLNNTNNGAPVANQEPSHQLPVVNHNEIARSFPGGSGPIRVPSCKLPKGRRLIGEHAVYDVDVRLQGEIQPQLEVTPITKYGSDPQLVVGRQIAVNKVYICYGLKGGNIRVLNINTALRSLFRGHSQRVTDMAFFAEDVDMLASVSLDGKVFVWKISEGSEGEDQPQITGKIVLALQILGEEDTKHPRVCWHCHKQEILVVSIGKHVLRIDTTKVGRGEVFSAEAPLQCPLDKLIDGVQIVGKHDGEVTDLSMCQWMTTRLVSSSVDGTIKIWQDRKAQPLVVLRPHDGHPVSSATFVTSPERPDHIILITGGPLNREMKIWVSAGEEGWLLPADAESWRCTQTLDLKSSTEPRAEEAFFNQVIALSEAGLLLLANAKRNALYAVHLDYGSSPVGTRMDYLSEFTVTMPILSFIGTNDPPEEPIVKVYCVQTLAIQQYTLDLCLCLPPPIENMGLEKSDSSVSREANLVEGMSEPSGLKPTDLPSVDSVPKPSIIVNRSESANKLSFPSAEATSQAIVPPNGEPKTSGLPSQTSGAGSAYATLPQLPLSPRLSSKLSGYHTPVEAIEPVIPHHELGGKTPSADYSVDRQMDAVGERNLDVSSVEEISRSKDSNVTPDDDVSGMRSPSAFFKHPTHLVTPSEILMGVSSAEASITTEDRRDRDANIQDVNNDPRDTEVEVKEISEARSTQNGEINDHDETENCTSENREKVFCSQVSNLSTEMARDCYPSTEGTFIPGESKAYGQPIKAGDESGVDSRGGPAKLLKGKKQKAKNSQGPGLSSTSSNVANLADSFNEQSQSLSHPMTDLLPQLLAMQETMNQVMASQKEMQRQLSNAATGPIGKESKRLEVALGRMIEKSSKSNADALWARIQEETVKNEKALRDHAQQIVNATTNFMSKELNAMFEKTIKKELAAIGPALARSVVPVIEKTVSSAITESFQRGIGDKAVNQLDKSVNIKLEATVARQIQAQFQTSGKQALQEGLRSSVESSVIPSFEKACKAMFDQIDSAFQKGIAEHTNAAQQRFDSGHSQLAHTLKESITSASSVAQALSRELAETQRNLLALAAAGANSGGSNSLVTQLSGGPLGALLEKVEAPMDPTTELSRLISERKYEESFTSALQRSDVSIVSWLCSQVDLRGLLAMNPLPLSQGVLLSLLQQLACDISKDTSRKLAWMTDVVAAINPSDQMIAVHARPIFEQVYQILHHHRNAPGSDVSAIRLIMHVINSMLMGCK
With B1, the “GFPabc mRNA level by qRT-PCR in N. benthamiana leaves co-infiltrated with pGFPabc, pVCS and pTAV against pTAV alone” value was 3 fold.
